From article PMC3515540, “Identification of Regions Involved in Substrate Binding and Dimer Stabilization within the Central Domains of Yeast Hsp40 Sis1” (PLoS ONE, 2012)

T1: full-length Ydj1 (yeast, UniProt P25491 1-409)
T1 construct: Ydj1, yeast cytosolic Type I DnaJ/Hsp40, full length; also called wild-type Ydj1; source: E. coli BL21(DE3), purified by two chromatography steps
T1 sequence (looked up): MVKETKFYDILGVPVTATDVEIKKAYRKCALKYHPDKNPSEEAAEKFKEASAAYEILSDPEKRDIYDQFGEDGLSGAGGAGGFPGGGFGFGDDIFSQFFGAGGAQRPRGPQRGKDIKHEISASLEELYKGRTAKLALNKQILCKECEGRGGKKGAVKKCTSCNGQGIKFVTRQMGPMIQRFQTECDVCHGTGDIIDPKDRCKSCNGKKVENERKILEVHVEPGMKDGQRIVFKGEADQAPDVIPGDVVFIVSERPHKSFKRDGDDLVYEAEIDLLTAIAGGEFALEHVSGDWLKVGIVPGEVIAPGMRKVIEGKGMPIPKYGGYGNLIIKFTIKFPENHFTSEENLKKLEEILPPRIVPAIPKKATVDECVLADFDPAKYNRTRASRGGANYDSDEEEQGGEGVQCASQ

B1: wild-type Sis1 (natural protein, yeast, UniProt P25294 1-352, looked up)
chain: MVKETKLYDLLGVSPSANEQELKKGYRKAALKYHPDKPTGDTEKFKEISEAFEILNDPQKREIYDQYGLEAARSGGPSFGPGGPGGAGGAGGFPGGAGGFSGGHAFSNEDAFNIFSQFFGGSSPFGGADDSGFSFSSYPSGGGAGMGGMPGGMGGMHGGMGGMPGGFRSASSSPTYPEEETVQVNLPVSLEDLFVGKKKSFKIGRKGPHGASEKTQIDIQLKPGWKAGTKITYKNQGDYNPQTGRRKTLQFVIQEKSHPNFKRDGDDLIYTLPLSFKESLLGFSKTIQTIDGRTLPLSRVQPVQPSQTSTYPGQGMPTPKNPSQRGNLIVKYKVDYPISLNDAQKRAIDENF
notes: Sis1, yeast cytosolic Type II DnaJ/Hsp40, full length wild type (residues to 352 by the SYS formula); no tag is stated; also called native Sis1; full length wild-type Sis1; source: E. coli BL21(DE3), purified by two chromatography steps
B2: Hsp70 Ssa1 (natural protein)
chain: not shown
notes: Ssa1, yeast cytosolic Hsp70; also called yeast Hsp70; source: E. coli BL21(DE3), purified by two chromatography steps (said of all recombinant proteins, 'unless otherwise noted')
B3: Sis1_Δ_(121–257) (natural protein, yeast, UniProt P25294 1-352, looked up)
chain: MVKETKLYDLLGVSPSANEQELKKGYRKAALKYHPDKPTGDTEKFKEISEAFEILNDPQKREIYDQYGLEAARSGGPSFGPGGPGGAGGAGGFPGGAGGFSGGHAFSNEDAFNIFSQFFGHPNFKRDGDDLIYTLPLSFKESLLGFSKTIQTIDGRTLPLSRVQPVQPSQTSTYPGQGMPTPKNPSQRGNLIVKYKVDYPISLNDAQKRAIDENF
notes: source: E. coli BL21(DE3), purified by two chromatography steps
B4: Sis1_Δ_(124–174) (natural protein, yeast, UniProt P25294 1-352, looked up)
chain: MVKETKLYDLLGVSPSANEQELKKGYRKAALKYHPDKPTGDTEKFKEISEAFEILNDPQKREIYDQYGLEAARSGGPSFGPGGPGGAGGAGGFPGGAGGFSGGHAFSNEDAFNIFSQFFGGSSTYPEEETVQVNLPVSLEDLFVGKKKSFKIGRKGPHGASEKTQIDIQLKPGWKAGTKITYKNQGDYNPQTGRRKTLQFVIQEKSHPNFKRDGDDLIYTLPLSFKESLLGFSKTIQTIDGRTLPLSRVQPVQPSQTSTYPGQGMPTPKNPSQRGNLIVKYKVDYPISLNDAQKRAIDENF
notes: as for B3
B5: SYS (Sis1_(1–121)-Ydj1_(101–255)-Sis1_(258–352)) (other, yeast, UniProt P25294 1-121, looked up)
chain: MVKETKLYDLLGVSPSANEQELKKGYRKAALKYHPDKPTGDTEKFKEISEAFEILNDPQKREIYDQYGLEAARSGGPSFGPGGPGGAGGAGGFPGGAGGFSGGHAFSNEDAFNIFSQFFGGAGGAQRPRGPQRGKDIKHEISASLEELYKGRTAKLALNKQILCKECEGRGGKKGAVKKCTSCNGQGIKFVTRQMGPMIQRFQTECDVCHGTGDIIDPKDRCKSCNGKKVENERKILEVHVEPGMKDGQRIVFKGEADQAPDVIPGDVVFIVSERPHPNFKRDGDDLIYTLPLSFKESLLGFSKTIQTIDGRTLPLSRVQPVQPSQTSTYPGQGMPTPKNPSQRGNLIVKYKVDYPISLNDAQKRAIDENF
notes: Ydj1, yeast, residues 101–255 (central region); Sis1, yeast, residues 258–352 (CTDII and dimerization region); also called chimera SYS; SYS chimera; source: E. coli BL21(DE3), purified by two chromatography steps

Tests used:
[1] = biological target: the molecule itself; experiment: SEC-MALLS; Superdex 200 10/300 GL, buffer A (25 mM Tris-HCl pH 7.5, 500 mM NaCl); 25 µM protein without urea, 50–75 µM with urea up to 1 M
[2] = biological target: B2; experiment: ELISA; Sis1, variants or Ydj1 (100 µL at 200 nM) coated on the microplate; Ssa1 (100 nM) in 50 mM phosphate pH 7.4, 150 mM NaCl, 5 mM Mg-ATP, 1 h, 25°C; bound Ssa1 detected with α-Ssa1; Sis1 set as 100%; conditions: both partners purified
[3] = biological target: B3; experiment: as above; conditions: both partners purified
[4] = biological target: B5; experiment: as above; conditions: both partners purified
[5] = biological target: T1, full-length Ydj1; experiment: as above; conditions: both partners purified

## B1
[1]
  stoichiometry N: 2
[2]
  binding result: binds

## B2
[3]
  percent of the binding ability of Sis1: ~50%
[4]
  percent of the binding ability of Sis1: ~50%
[5]
  percent of the binding ability of Sis1: ~30%

## B3
[1]
  stoichiometry N: 2

## B4
[1]
  stoichiometry N: 2
[2]
  binding result: binds

## B5
[1]
  stoichiometry N: 2
